# T1: DFNB31_1, Q9P202
# T1 sequence (Q9P202 135-233, limits assumed, looked up): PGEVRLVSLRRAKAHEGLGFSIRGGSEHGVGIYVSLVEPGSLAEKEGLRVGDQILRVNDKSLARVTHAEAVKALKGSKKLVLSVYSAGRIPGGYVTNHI
# T2: DLG3_1, Q92796
# T2 sequence (Q92796 125-227, limits assumed, looked up): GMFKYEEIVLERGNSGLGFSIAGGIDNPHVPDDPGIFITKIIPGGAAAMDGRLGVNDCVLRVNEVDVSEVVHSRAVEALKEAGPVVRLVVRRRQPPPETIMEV
# T3: DLG3_2, Q92796
# T3 sequence (Q92796 221-321, limits assumed, looked up): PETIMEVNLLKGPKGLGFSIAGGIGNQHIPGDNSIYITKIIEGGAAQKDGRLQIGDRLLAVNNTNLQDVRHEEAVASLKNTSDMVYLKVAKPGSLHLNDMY
# T4: LIN7B, Q9HAP6
# T4 sequence (Q9HAP6 88-185, limits assumed, looked up): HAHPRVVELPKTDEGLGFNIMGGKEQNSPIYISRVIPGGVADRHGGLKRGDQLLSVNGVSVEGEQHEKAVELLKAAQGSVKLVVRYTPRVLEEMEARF
# T5: MPDZ_10, O75970
# T5 sequence (O75970 1624-1722, limits assumed, looked up): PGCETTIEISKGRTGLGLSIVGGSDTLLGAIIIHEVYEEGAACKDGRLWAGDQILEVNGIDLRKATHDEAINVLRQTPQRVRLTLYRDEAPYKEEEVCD
# T6: MPDZ_12, O75970
# T6 sequence (O75970 1857-1958, limits assumed, looked up): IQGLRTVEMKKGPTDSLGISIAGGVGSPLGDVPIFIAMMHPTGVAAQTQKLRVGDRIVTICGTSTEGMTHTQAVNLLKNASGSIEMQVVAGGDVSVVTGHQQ
# T7: MPDZ_5, O75970
# T7 sequence (O75970 695-796, limits assumed, looked up): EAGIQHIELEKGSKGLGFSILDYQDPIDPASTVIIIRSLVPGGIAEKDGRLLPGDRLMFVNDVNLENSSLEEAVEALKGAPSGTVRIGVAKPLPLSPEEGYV
# T8: NHERF3_3, Q5T2W1
# T8 sequence (Q5T2W1 238-333, limits assumed, looked up): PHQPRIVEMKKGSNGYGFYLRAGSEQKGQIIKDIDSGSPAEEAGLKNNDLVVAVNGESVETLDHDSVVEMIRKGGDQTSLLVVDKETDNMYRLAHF
# T9: PDZRN3_1, Q9UPQ7
# T9 sequence (Q9UPQ7 244-349, limits assumed, looked up): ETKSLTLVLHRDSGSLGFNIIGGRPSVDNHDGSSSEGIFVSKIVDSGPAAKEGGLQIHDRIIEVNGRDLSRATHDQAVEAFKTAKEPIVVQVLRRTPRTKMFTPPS
# T10: RAPGEF6, Q8TEU7
# T10 sequence (Q8TEU7 525-625, limits assumed, looked up): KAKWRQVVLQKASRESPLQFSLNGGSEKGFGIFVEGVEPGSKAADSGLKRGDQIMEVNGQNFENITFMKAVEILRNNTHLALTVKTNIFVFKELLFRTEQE
# T11: SIPA1L2, Q9P2F8
# T11 sequence (Q9P2F8 945-1036, limits assumed, looked up): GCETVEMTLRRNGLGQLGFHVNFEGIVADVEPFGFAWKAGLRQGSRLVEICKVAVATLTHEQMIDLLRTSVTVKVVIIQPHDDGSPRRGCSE
# T12: SNTG2, Q9NY99
# T12 sequence (Q9NY99 68-166, limits assumed, looked up): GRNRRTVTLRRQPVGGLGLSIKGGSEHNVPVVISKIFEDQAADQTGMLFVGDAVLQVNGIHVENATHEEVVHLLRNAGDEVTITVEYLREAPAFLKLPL
# B1: SLCO1A2, P46721 (peptide)
# chain: LKDDELKTKL
# B2: PTGIR, P43119 (peptide)
# chain: AEASVACSLC
# B3: CACNG2, Q9Y698 (peptide)
# chain: NTANRRTTPV
# Biological target: AHNAK1, Q09666
# Sequence (Q09666 4-100): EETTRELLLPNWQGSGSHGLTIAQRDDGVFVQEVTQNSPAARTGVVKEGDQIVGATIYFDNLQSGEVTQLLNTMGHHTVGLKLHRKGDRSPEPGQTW
# Assay: holdup assay
# Set-up: key: below the threshold = too weak to quantify, mostly under pKd 3.1 to 4
# Conditions: plain residues with an end cap or a label only (N-terminal biotin on a linker: ado-ado)
row,Binder,pKd
1,B1,below the threshold
2,B2,below the threshold
3,B3,below the threshold

# Biological target: T1, DFNB31_1, Q9P202
# Assay: holdup assay
# Set-up: key: below the threshold = too weak to quantify, mostly under pKd 3.1 to 4
# Conditions: plain residues with an end cap or a label only (N-terminal biotin on a linker: ado-ado)
row,Binder,pKd
1,B1,below the threshold
2,B2,below the threshold
3,B3,3.76

# Biological target: DLG1_3, Q12959
# Sequence (Q12959 457-571): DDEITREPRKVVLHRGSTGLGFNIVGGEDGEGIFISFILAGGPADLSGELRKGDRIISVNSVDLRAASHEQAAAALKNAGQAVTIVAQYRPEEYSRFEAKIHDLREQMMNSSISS
# Assay: holdup assay
# Set-up: key: below the threshold = too weak to quantify, mostly under pKd 3.1 to 4
# Conditions: plain residues with an end cap or a label only (N-terminal biotin on a linker: ado-ado)
row,Binder,pKd
1,B1,below the threshold
2,B2,below the threshold
3,B3,4.16

# Biological target: T2, DLG3_1, Q92796
# Assay: holdup assay
# Set-up: key: below the threshold = too weak to quantify, mostly under pKd 3.1 to 4
# Conditions: plain residues with an end cap or a label only (N-terminal biotin on a linker: ado-ado)
row,Binder,pKd
1,B1,below the threshold
2,B2,below the threshold
3,B3,3.61

# Biological target: T3, DLG3_2, Q92796
# Assay: holdup assay
# Set-up: key: below the threshold = too weak to quantify, mostly under pKd 3.1 to 4
# Conditions: plain residues with an end cap or a label only (N-terminal biotin on a linker: ado-ado)
row,Binder,pKd
1,B1,below the threshold
2,B2,3.69
3,B3,4.44

# Biological target: FRMPD2_3, Q68DX3
# Sequence (Q68DX3 1073-1166): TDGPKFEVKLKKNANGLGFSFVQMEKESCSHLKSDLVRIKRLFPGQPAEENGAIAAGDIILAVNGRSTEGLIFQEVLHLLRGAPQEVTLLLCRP
# Assay: holdup assay
# Set-up: key: below the threshold = too weak to quantify, mostly under pKd 3.1 to 4
# Conditions: plain residues with an end cap or a label only (N-terminal biotin on a linker: ado-ado)
row,Binder,pKd
1,B1,below the threshold
2,B2,below the threshold
3,B3,below the threshold

# Biological target: GRID2IP_1, A4D2P6
# Sequence (A4D2P6 1-87): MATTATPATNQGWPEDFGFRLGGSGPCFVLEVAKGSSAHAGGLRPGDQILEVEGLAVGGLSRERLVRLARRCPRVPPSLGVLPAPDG
# Assay: holdup assay
# Set-up: key: below the threshold = too weak to quantify, mostly under pKd 3.1 to 4
# Conditions: plain residues with an end cap or a label only (N-terminal biotin on a linker: ado-ado)
row,Binder,pKd
1,B1,below the threshold
2,B2,below the threshold
3,B3,below the threshold

# Biological target: Inadl_3, Q8NI35
# Sequence (Q8NI35 359-469): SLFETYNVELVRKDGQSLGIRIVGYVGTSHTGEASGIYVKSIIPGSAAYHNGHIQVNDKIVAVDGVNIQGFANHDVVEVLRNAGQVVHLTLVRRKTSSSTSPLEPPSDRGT
# Assay: holdup assay
# Set-up: key: below the threshold = too weak to quantify, mostly under pKd 3.1 to 4
# Conditions: plain residues with an end cap or a label only (N-terminal biotin on a linker: ado-ado)
row,Binder,pKd
1,B1,below the threshold
2,B2,below the threshold
3,B3,below the threshold

# Biological target: Inadl_5, Q8NI35
# Sequence (Q8NI35 673-780): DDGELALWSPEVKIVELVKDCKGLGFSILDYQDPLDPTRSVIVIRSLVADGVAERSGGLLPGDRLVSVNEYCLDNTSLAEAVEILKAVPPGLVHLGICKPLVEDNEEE
# Assay: holdup assay
# Set-up: key: below the threshold = too weak to quantify, mostly under pKd 3.1 to 4
# Conditions: plain residues with an end cap or a label only (N-terminal biotin on a linker: ado-ado)
row,Binder,pKd
1,B1,below the threshold
2,B2,below the threshold
3,B3,below the threshold

# Biological target: LDB3, O75112
# Sequence (O75112 1-94): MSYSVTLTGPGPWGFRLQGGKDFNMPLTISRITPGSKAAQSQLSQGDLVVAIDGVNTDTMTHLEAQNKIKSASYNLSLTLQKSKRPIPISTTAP
# Assay: holdup assay
# Set-up: key: below the threshold = too weak to quantify, mostly under pKd 3.1 to 4
# Conditions: plain residues with an end cap or a label only (N-terminal biotin on a linker: ado-ado)
row,Binder,pKd
1,B1,below the threshold
2,B2,below the threshold
3,B3,below the threshold

# Biological target: T4, LIN7B, Q9HAP6
# Assay: holdup assay
# Set-up: key: below the threshold = too weak to quantify, mostly under pKd 3.1 to 4
# Conditions: plain residues with an end cap or a label only (N-terminal biotin on a linker: ado-ado)
row,Binder,pKd
1,B1,below the threshold
2,B2,below the threshold
3,B3,below the threshold

# Biological target: T5, MPDZ_10, O75970
# Assay: holdup assay
# Set-up: key: below the threshold = too weak to quantify, mostly under pKd 3.1 to 4
# Conditions: plain residues with an end cap or a label only (N-terminal biotin on a linker: ado-ado)
row,Binder,pKd
1,B1,below the threshold
2,B2,3.47
3,B3,3.87

# Biological target: T6, MPDZ_12, O75970
# Assay: holdup assay
# Set-up: key: below the threshold = too weak to quantify, mostly under pKd 3.1 to 4
# Conditions: plain residues with an end cap or a label only (N-terminal biotin on a linker: ado-ado)
row,Binder,pKd
1,B1,below the threshold
2,B2,3.48
3,B3,below the threshold

# Biological target: T7, MPDZ_5, O75970
# Assay: holdup assay
# Set-up: key: below the threshold = too weak to quantify, mostly under pKd 3.1 to 4
# Conditions: plain residues with an end cap or a label only (N-terminal biotin on a linker: ado-ado)
row,Binder,pKd
1,B1,below the threshold
2,B2,below the threshold
3,B3,below the threshold

# Biological target: T8, NHERF3_3, Q5T2W1
# Assay: holdup assay
# Set-up: key: below the threshold = too weak to quantify, mostly under pKd 3.1 to 4
# Conditions: plain residues with an end cap or a label only (N-terminal biotin on a linker: ado-ado)
row,Binder,pKd
1,B1,4.17
2,B2,below the threshold
3,B3,below the threshold

# Biological target: NHERF4_2, Q86UT5
# Sequence (Q86UT5 220-308): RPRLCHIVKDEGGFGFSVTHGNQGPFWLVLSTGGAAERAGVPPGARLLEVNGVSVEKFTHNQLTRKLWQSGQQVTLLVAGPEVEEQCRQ
# Assay: holdup assay
# Set-up: key: below the threshold = too weak to quantify, mostly under pKd 3.1 to 4
# Conditions: plain residues with an end cap or a label only (N-terminal biotin on a linker: ado-ado)
row,Binder,pKd
1,B1,below the threshold
2,B2,below the threshold
3,B3,below the threshold

# Biological target: NHERF4_4, Q86UT5
# Sequence (Q86UT5 464-550): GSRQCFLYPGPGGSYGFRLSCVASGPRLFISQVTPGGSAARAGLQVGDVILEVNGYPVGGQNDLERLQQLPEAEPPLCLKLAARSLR
# Assay: holdup assay
# Set-up: key: below the threshold = too weak to quantify, mostly under pKd 3.1 to 4
# Conditions: plain residues with an end cap or a label only (N-terminal biotin on a linker: ado-ado)
row,Binder,pKd
1,B1,below the threshold
2,B2,below the threshold
3,B3,below the threshold

# Biological target: T9, PDZRN3_1, Q9UPQ7
# Assay: holdup assay
# Set-up: key: below the threshold = too weak to quantify, mostly under pKd 3.1 to 4
# Conditions: plain residues with an end cap or a label only (N-terminal biotin on a linker: ado-ado)
row,Binder,pKd
1,B1,below the threshold
2,B2,below the threshold
3,B3,4.23

# Biological target: T10, RAPGEF6, Q8TEU7
# Assay: holdup assay
# Set-up: key: below the threshold = too weak to quantify, mostly under pKd 3.1 to 4
# Conditions: plain residues with an end cap or a label only (N-terminal biotin on a linker: ado-ado)
row,Binder,pKd
1,B1,below the threshold
2,B2,below the threshold
3,B3,below the threshold

# Biological target: SCRIB_1, Q14160
# Sequence (Q14160 718-814): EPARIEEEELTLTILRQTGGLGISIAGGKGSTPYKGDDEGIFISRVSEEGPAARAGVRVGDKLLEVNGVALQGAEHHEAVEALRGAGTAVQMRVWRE
# Assay: holdup assay
# Set-up: key: below the threshold = too weak to quantify, mostly under pKd 3.1 to 4
# Conditions: plain residues with an end cap or a label only (N-terminal biotin on a linker: ado-ado)
row,Binder,pKd
1,B1,below the threshold
2,B2,below the threshold
3,B3,3.49

# Biological target: T11, SIPA1L2, Q9P2F8
# Assay: holdup assay
# Set-up: key: below the threshold = too weak to quantify, mostly under pKd 3.1 to 4
# Conditions: plain residues with an end cap or a label only (N-terminal biotin on a linker: ado-ado)
row,Binder,pKd
1,B1,below the threshold
2,B2,below the threshold
3,B3,below the threshold

# Biological target: T12, SNTG2, Q9NY99
# Assay: holdup assay
# Set-up: key: below the threshold = too weak to quantify, mostly under pKd 3.1 to 4
# Conditions: plain residues with an end cap or a label only (N-terminal biotin on a linker: ado-ado)
row,Binder,pKd
1,B1,below the threshold
2,B2,below the threshold
3,B3,below the threshold

# Biological target: SNX27, Q96L92
# Assay: holdup assay
# Set-up: key: below the threshold = too weak to quantify, mostly under pKd 3.1 to 4
# Conditions: plain residues with an end cap or a label only (N-terminal biotin on a linker: ado-ado)
row,Binder,pKd
1,B1,3.8
2,B2,4.4
3,B3,4.99

# Biological target: TJP1_3, Q07157
# Sequence (Q07157 416-512): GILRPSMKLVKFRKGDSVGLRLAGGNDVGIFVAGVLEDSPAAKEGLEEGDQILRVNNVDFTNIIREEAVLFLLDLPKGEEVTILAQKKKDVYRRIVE
# Assay: holdup assay
# Set-up: key: below the threshold = too weak to quantify, mostly under pKd 3.1 to 4
# Conditions: plain residues with an end cap or a label only (N-terminal biotin on a linker: ado-ado)
row,Binder,pKd
1,B1,below the threshold
2,B2,below the threshold
3,B3,below the threshold
